How the values were obtained:
[1] = tested on: hyperinsulinemic hypoglycemia; conditions: meta-analysis of six cohorts (1142 subjects); cited from earlier work
Text: Diazoxide, a first-line therapy, is a nondiuretic benzothiadizine originally formulated as a peripheral vasodilator for the treatment of hypertension. […] Octreotide—a synthetic peptide analog of somatostatin—has been frequently used as a second-line therapy to treat patients with CHI who are not res ...

FcγRIIIA = target: T1, FcγRIIIA (Homo sapiens, UniProt P08637); assay: FcγRIIIA binding by SPR; conditions: SPR BIACORE T200, 25 °C, steady-state affinity fit; read-out: Binding affinities (KD) FcγRIIIA
T1 construct: purchased
T1 sequence (P08637 17-254): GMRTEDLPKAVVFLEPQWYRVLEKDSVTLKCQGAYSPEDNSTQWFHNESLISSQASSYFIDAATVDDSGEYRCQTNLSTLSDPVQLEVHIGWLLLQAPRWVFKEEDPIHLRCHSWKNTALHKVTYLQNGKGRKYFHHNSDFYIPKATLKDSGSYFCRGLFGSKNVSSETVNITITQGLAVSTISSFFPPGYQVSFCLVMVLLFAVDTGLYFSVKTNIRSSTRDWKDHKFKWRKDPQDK
Description: (§1) All experiments were carried out on a BIACORE T200 instrument (GE Healthcare, USA) at 25 °C. Amine coupling chemistry was used to immobilize FcγRs on the surface of a CM5 sensor chip. For activation, a mixture of NHS and EDC solution was injected onto a CM5 sensor chip for 7 min at a flow rate of 10 μL/min. FcγRIA, FcγRIIA, FcγRIIB/C, FcγRIIIA, and FcγRIIIB were immobilized on CM5 chips by injecting 5 μg/mL of FcγRIA, 10 μg/mL of FcγRIIA, 2 μg/mL of FcγRIIIA, 10 μg/mL of FcγRIIIB, and 10 μg/mL of FcγRIIB/C diluted with 10 mM sodium acetate (pH 4.5) onto CM5 chips at a flow rate of 5 μL/min. The target RU was 1500 RU for FcγRIA and FcγRIIA, 3,000 RU for FcγRIIB/C and FcγRIIIB, and 1,000 RU for FcγRIIIA. To deactivate unreacted moieties, the chip surface was blocked with 1 M ethanolamine/HCl (pH 8.5) for 7 min at a flow rate of […]. HMC001 and I.V.-Globulin SN were diluted with running buffer to 500, 250, 125, 62.5, and 31.25 nM. HM15136 was diluted with running buffer to 486, 243, 121.5, 60.75, and 30.38 nM. The test materials were injected for 10 min (for Fc immobilized with FcγRIA and FcγRIIA) or 15 min (for Fc immobilized with FcγRIIIA, FcγRIIIB, and FcγRIIB/C) for association, followed by 10 min-dissociation at 20 μL/min. Binding affinity was evaluated with a steady-state affinity fitting model in BIACORE T200 Evaluation Software version 3.0. […]

FcγRIIIB = target: T2, FcγRIIIB (Homo sapiens, UniProt O75015); assay: FcγRIIIB binding by SPR; conditions: SPR BIACORE T200, 25 °C, steady-state affinity fit; read-out: Binding affinities (KD) FcγRIIIB
T2 construct: purchased
T2 sequence (O75015 17-233): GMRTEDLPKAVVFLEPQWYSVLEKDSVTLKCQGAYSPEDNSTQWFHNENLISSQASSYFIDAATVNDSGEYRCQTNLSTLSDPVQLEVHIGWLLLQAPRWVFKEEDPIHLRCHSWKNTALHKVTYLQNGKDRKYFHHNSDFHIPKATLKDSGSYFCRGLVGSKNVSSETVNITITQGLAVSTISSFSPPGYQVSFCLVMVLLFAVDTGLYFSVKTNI
Description: as §1

FcγRIIA = target: T3, FcγRIIA (Homo sapiens, UniProt P12318); assay: FcγRIIA binding by SPR; conditions: SPR BIACORE T200, 25 °C, steady-state affinity fit; read-out: Binding affinities (KD) FcγRIIA
T3 construct: purchased
T3 sequence (P12318 34-317): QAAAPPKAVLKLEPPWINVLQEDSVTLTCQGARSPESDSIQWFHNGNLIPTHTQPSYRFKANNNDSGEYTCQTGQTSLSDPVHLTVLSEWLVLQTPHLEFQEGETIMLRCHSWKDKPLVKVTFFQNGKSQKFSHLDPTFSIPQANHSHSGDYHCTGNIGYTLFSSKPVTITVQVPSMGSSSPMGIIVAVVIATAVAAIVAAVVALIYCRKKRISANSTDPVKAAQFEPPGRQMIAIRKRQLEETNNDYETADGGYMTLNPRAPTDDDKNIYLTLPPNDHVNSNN
Description: as §1

FcγRIIB/C = target: T4, FcγRIIB/C (Homo sapiens, UniProt P31994); assay: FcγRIIB/C binding by SPR; conditions: SPR BIACORE T200, 25 °C, steady-state affinity fit; read-out: Binding affinities (KD) FcγRIIB/C
T4 construct: purchased
T4 sequence (P31994 43-310): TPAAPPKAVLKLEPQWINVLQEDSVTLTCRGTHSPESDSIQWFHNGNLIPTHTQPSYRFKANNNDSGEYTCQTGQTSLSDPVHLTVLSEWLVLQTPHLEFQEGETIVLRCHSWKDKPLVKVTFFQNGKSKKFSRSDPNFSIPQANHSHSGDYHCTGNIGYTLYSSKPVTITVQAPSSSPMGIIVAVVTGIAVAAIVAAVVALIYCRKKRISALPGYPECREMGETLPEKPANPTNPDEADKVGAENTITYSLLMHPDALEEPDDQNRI
Description: All experiments were carried out on a BIACORE T200 instrument (GE Healthcare, USA) at 25 °C. Amine coupling chemistry was used to immobilize FcγRs on the surface of a CM5 sensor chip. For activation, a mixture of NHS and EDC solution was injected onto a CM5 sensor chip for 7 min at a flow rate of 10 μL/min. FcγRIA, FcγRIIA, FcγRIIB/C, FcγRIIIA, and FcγRIIIB were immobilized on CM5 chips by injecting 5 μg/mL of FcγRIA, 10 μg/mL of FcγRIIA, 2 μg/mL of FcγRIIIA, 10 μg/mL of FcγRIIIB, and 10 μg/mL of FcγRIIB/C diluted with 10 mM sodium acetate (pH 4.5) onto CM5 chips at a flow rate of 5 μL/min. The target RU was 1500 RU for FcγRIA and FcγRIIA, 3,000 RU for FcγRIIB/C and FcγRIIIB, and 1,000 RU for FcγRIIIA. To deactivate unreacted moieties, the chip surface was blocked with 1 M ethanolamine/HCl (pH 8.5) for 7 min at a flow rate of 10 L/min. […] The test materials were injected for 10 min (for Fc immobilized with FcγRIA and FcγRIIA) or 15 min (for Fc immobilized with FcγRIIIA, FcγRIIIB, and FcγRIIB/C) for association, followed by 10 min-dissociation at 20 μL/min. Binding affinity was evaluated with a steady-state affinity fitting model in BIACORE T200 Evaluation Software version 3.0. Blank-subtracted sensograms (RU form reference channel and blanks were subtracted) were used for evaluation.

FcγRIA = target: T5, FcγRIA (Homo sapiens, UniProt P12314); assay: FcγRIA binding by SPR; conditions: SPR BIACORE T200, 25 °C, steady-state affinity fit; read-out: Binding affinities (KD) FcγRIA
T5 construct: purchased
T5 sequence (P12314 16-374): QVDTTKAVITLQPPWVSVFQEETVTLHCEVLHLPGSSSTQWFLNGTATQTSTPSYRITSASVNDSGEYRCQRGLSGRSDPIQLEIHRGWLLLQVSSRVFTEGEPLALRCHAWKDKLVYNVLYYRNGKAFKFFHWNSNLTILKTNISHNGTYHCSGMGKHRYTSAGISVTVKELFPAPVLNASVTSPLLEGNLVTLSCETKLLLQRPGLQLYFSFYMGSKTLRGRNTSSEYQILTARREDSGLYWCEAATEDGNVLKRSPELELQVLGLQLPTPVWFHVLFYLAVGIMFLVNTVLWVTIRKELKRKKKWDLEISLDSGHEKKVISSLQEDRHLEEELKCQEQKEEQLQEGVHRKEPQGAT
Description: as §1

human C1q = human C1q (Homo sapiens, UniProt P02745+P02746+P02747); assay: C1q binding by SPR; conditions: SPR BIACORE T200, test material immobilized, steady-state affinity fit; read-out: Binding affinities (KD) C1q
Chain of human C1q (P02745 23-245): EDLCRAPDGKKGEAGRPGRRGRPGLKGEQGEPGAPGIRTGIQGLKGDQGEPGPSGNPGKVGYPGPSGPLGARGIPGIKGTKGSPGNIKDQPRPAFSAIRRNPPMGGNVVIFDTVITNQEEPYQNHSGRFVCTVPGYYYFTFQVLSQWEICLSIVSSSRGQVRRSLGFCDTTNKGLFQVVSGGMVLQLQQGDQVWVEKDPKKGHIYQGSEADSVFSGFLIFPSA
Chain of human C1q (P02746 28-253): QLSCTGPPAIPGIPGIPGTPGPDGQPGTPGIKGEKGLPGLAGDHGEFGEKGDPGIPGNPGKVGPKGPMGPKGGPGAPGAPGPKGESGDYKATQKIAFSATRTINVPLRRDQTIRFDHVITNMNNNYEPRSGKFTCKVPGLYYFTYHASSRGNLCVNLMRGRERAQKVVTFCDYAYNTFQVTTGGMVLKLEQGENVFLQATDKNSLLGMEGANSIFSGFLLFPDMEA
Chain of human C1q (P02747 29-245): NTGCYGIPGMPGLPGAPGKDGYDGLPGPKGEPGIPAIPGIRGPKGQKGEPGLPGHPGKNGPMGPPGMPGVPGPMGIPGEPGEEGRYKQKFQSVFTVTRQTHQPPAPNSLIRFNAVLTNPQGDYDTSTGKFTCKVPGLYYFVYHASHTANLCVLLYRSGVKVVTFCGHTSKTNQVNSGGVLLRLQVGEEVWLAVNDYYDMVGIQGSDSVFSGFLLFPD
Description: The target immobilization of the three materials was 3000 RU. To stabilize the sensor chip, running buffer (HBS-EP) was injected for 10 min, followed by 10 min dissociation at 25 μL/min before test material injection. Then, regeneration buffer was injected for 30 s at 25 μL/min; this step was repeated three times. C1q was diluted with running buffer to 50, 25, 12.5, 6.25, and 3.125 nM and injected for 6 min for association, followed by 10-min dissociation at 25 μL/min. The remaining C1q was regenerated with regeneration buffer for 30 s at 25 μL/min; this step was repeated three times. Binding affinity was evaluated with a steady-state affinity fitting model in BIACORE T200 Evaluation Software version 3.0. Blank-subtracted sensograms (RU form reference channel and blank were subtracted) were used for evaluation.

CC1=NS(=O)(=O)c2cc(Cl)ccc2N1 [diazoxide, Diazoxide]
71%: response rate [1]

HMC001: Fc fragment of human immunoglobulin G4, derived from Escherichia coli, lacks glycosylation
> 500 nM: Kd (FcγRIIIA) | Kd (FcγRIIIB) | Kd (FcγRIIA) | Kd (FcγRIIB/C) | Kd (FcγRIA) | Kd (human C1q)

Reference: PMC9537296 (Scientific Reports, 2022)
